Laboratory results published in patent US20260207798A1, “CYCLIC PEPTIDES AS PET IMAGING AGENTS OF GRANZYME B” (priority 2022, published 2026).
Bridge positions count the residues as written; N and C are the ends.

B1: Compound 24a (peptide)
peptide: {CH2CO}-FNFEDQSVDTWQPCG-NH2
modifications: thioether N-14
SMILES: CC(C)[C@@H]1NC(=O)[C@H](CO)NC(=O)[C@H](CCC(N)=O)NC(=O)[C@H](CC(=O)O)NC(=O)[C@H](CCC(=O)O)NC(=O)[C@H](Cc2ccccc2)NC(=O)[C@H](CC(N)=O)NC(=O)[C@H](Cc2ccccc2)NC(=O)CSC[C@@H](C(=O)NCC(N)=O)NC(=O)[C@@H]2CCCN2C(=O)[C@H](CCC(N)=O)NC(=O)[C@H](Cc2c[nH]c3ccccc23)NC(=O)[C@H]([C@@H](C)O)NC(=O)[C@H](CC(=O)O)NC1=O
B2: Compound 27a (peptide)
peptide: {CH2CO}-FNFEDQAADTWQPCG-NH2
modifications: thioether N-14
SMILES: C[C@@H]1NC(=O)[C@H](C)NC(=O)[C@H](CCC(N)=O)NC(=O)[C@H](CC(=O)O)NC(=O)[C@H](CCC(=O)O)NC(=O)[C@H](Cc2ccccc2)NC(=O)[C@H](CC(N)=O)NC(=O)[C@H](Cc2ccccc2)NC(=O)CSC[C@@H](C(=O)NCC(N)=O)NC(=O)[C@@H]2CCCN2C(=O)[C@H](CCC(N)=O)NC(=O)[C@H](Cc2c[nH]c3ccccc23)NC(=O)[C@H]([C@@H](C)O)NC(=O)[C@H](CC(=O)O)NC1=O
B3: Compound 31a (peptide)
peptide: {CH2CO}-FNFEDQSWDTWQPCG-NH2
modifications: thioether N-14
SMILES: C[C@@H](O)[C@@H]1NC(=O)[C@H](CC(=O)O)NC(=O)[C@H](Cc2c[nH]c3ccccc23)NC(=O)[C@H](CO)NC(=O)[C@H](CCC(N)=O)NC(=O)[C@H](CC(=O)O)NC(=O)[C@H](CCC(=O)O)NC(=O)[C@H](Cc2ccccc2)NC(=O)[C@H](CC(N)=O)NC(=O)[C@H](Cc2ccccc2)NC(=O)CSC[C@@H](C(=O)NCC(N)=O)NC(=O)[C@@H]2CCCN2C(=O)[C@H](CCC(N)=O)NC(=O)[C@H](Cc2c[nH]c3ccccc23)NC1=O
B4: Compound 32a (peptide)
peptide: {CH2CO}-FNFEDQSRDTWQPCG-NH2
modifications: thioether N-14
SMILES: C[C@@H](O)[C@@H]1NC(=O)[C@H](CC(=O)O)NC(=O)[C@H](CCCNC(=N)N)NC(=O)[C@H](CO)NC(=O)[C@H](CCC(N)=O)NC(=O)[C@H](CC(=O)O)NC(=O)[C@H](CCC(=O)O)NC(=O)[C@H](Cc2ccccc2)NC(=O)[C@H](CC(N)=O)NC(=O)[C@H](Cc2ccccc2)NC(=O)CSC[C@@H](C(=O)NCC(N)=O)NC(=O)[C@@H]2CCCN2C(=O)[C@H](CCC(N)=O)NC(=O)[C@H](Cc2c[nH]c3ccccc23)NC1=O
B5: Compound 33a (peptide)
peptide: {CH2CO}-FNFEDQSKDTWQPCG-NH2
modifications: thioether N-14
SMILES: C[C@@H](O)[C@@H]1NC(=O)[C@H](CC(=O)O)NC(=O)[C@H](CCCCN)NC(=O)[C@H](CO)NC(=O)[C@H](CCC(N)=O)NC(=O)[C@H](CC(=O)O)NC(=O)[C@H](CCC(=O)O)NC(=O)[C@H](Cc2ccccc2)NC(=O)[C@H](CC(N)=O)NC(=O)[C@H](Cc2ccccc2)NC(=O)CSC[C@@H](C(=O)NCC(N)=O)NC(=O)[C@@H]2CCCN2C(=O)[C@H](CCC(N)=O)NC(=O)[C@H](Cc2c[nH]c3ccccc23)NC1=O
B6: Compound 29a (peptide)
peptide: {CH2CO}-FNFEDQNADTWQPCG-NH2
modifications: thioether N-14
SMILES: C[C@@H]1NC(=O)[C@H](CC(N)=O)NC(=O)[C@H](CCC(N)=O)NC(=O)[C@H](CC(=O)O)NC(=O)[C@H](CCC(=O)O)NC(=O)[C@H](Cc2ccccc2)NC(=O)[C@H](CC(N)=O)NC(=O)[C@H](Cc2ccccc2)NC(=O)CSC[C@@H](C(=O)NCC(N)=O)NC(=O)[C@@H]2CCCN2C(=O)[C@H](CCC(N)=O)NC(=O)[C@H](Cc2c[nH]c3ccccc23)NC(=O)[C@H]([C@@H](C)O)NC(=O)[C@H](CC(=O)O)NC1=O
B7: Compound 28a (peptide)
peptide: {CH2CO}-FNFEDQSARTWQPCG-NH2
modifications: thioether N-14
SMILES: C[C@@H]1NC(=O)[C@H](CO)NC(=O)[C@H](CCC(N)=O)NC(=O)[C@H](CC(=O)O)NC(=O)[C@H](CCC(=O)O)NC(=O)[C@H](Cc2ccccc2)NC(=O)[C@H](CC(N)=O)NC(=O)[C@H](Cc2ccccc2)NC(=O)CSC[C@@H](C(=O)NCC(N)=O)NC(=O)[C@@H]2CCCN2C(=O)[C@H](CCC(N)=O)NC(=O)[C@H](Cc2c[nH]c3ccccc23)NC(=O)[C@H]([C@@H](C)O)NC(=O)[C@H](CCCNC(=N)N)NC1=O
B8: Compound 37a (peptide)
peptide: {CH2CO}-FNFEDQSAHTWQPCG-NH2
modifications: thioether N-14
SMILES: C[C@@H]1NC(=O)[C@H](CO)NC(=O)[C@H](CCC(N)=O)NC(=O)[C@H](CC(=O)O)NC(=O)[C@H](CCC(=O)O)NC(=O)[C@H](Cc2ccccc2)NC(=O)[C@H](CC(N)=O)NC(=O)[C@H](Cc2ccccc2)NC(=O)CSC[C@@H](C(=O)NCC(N)=O)NC(=O)[C@@H]2CCCN2C(=O)[C@H](CCC(N)=O)NC(=O)[C@H](Cc2c[nH]c3ccccc23)NC(=O)[C@H]([C@@H](C)O)NC(=O)[C@H](Cc2c[nH]cn2)NC1=O
B9: Compound 30a (peptide)
peptide: {CH2CO}-FNFEDQGADTWQPCG-NH2
modifications: thioether N-14
SMILES: C[C@@H]1NC(=O)CNC(=O)[C@H](CCC(N)=O)NC(=O)[C@H](CC(=O)O)NC(=O)[C@H](CCC(=O)O)NC(=O)[C@H](Cc2ccccc2)NC(=O)[C@H](CC(N)=O)NC(=O)[C@H](Cc2ccccc2)NC(=O)CSC[C@@H](C(=O)NCC(N)=O)NC(=O)[C@@H]2CCCN2C(=O)[C@H](CCC(N)=O)NC(=O)[C@H](Cc2c[nH]c3ccccc23)NC(=O)[C@H]([C@@H](C)O)NC(=O)[C@H](CC(=O)O)NC1=O
B10: Compound 35a (peptide)
peptide: {CH2CO}-FNFEDQSAWTWQPCG-NH2
modifications: thioether N-14
SMILES: C[C@@H]1NC(=O)[C@H](CO)NC(=O)[C@H](CCC(N)=O)NC(=O)[C@H](CC(=O)O)NC(=O)[C@H](CCC(=O)O)NC(=O)[C@H](Cc2ccccc2)NC(=O)[C@H](CC(N)=O)NC(=O)[C@H](Cc2ccccc2)NC(=O)CSC[C@@H](C(=O)NCC(N)=O)NC(=O)[C@@H]2CCCN2C(=O)[C@H](CCC(N)=O)NC(=O)[C@H](Cc2c[nH]c3ccccc23)NC(=O)[C@H]([C@@H](C)O)NC(=O)[C@H](Cc2c[nH]c3ccccc23)NC1=O
B11: Compound 34a (peptide)
peptide: {CH2CO}-FNFEDQSAKTWQPCG-NH2
modifications: thioether N-14
SMILES: C[C@@H]1NC(=O)[C@H](CO)NC(=O)[C@H](CCC(N)=O)NC(=O)[C@H](CC(=O)O)NC(=O)[C@H](CCC(=O)O)NC(=O)[C@H](Cc2ccccc2)NC(=O)[C@H](CC(N)=O)NC(=O)[C@H](Cc2ccccc2)NC(=O)CSC[C@@H](C(=O)NCC(N)=O)NC(=O)[C@@H]2CCCN2C(=O)[C@H](CCC(N)=O)NC(=O)[C@H](Cc2c[nH]c3ccccc23)NC(=O)[C@H]([C@@H](C)O)NC(=O)[C@H](CCCCN)NC1=O
B12: Compound 39a (peptide)
peptide: {CH2CO}-YNFEDQSPDTWQPCG-NH2
modifications: thioether N-14
SMILES: C[C@@H](O)[C@@H]1NC(=O)[C@H](CC(=O)O)NC(=O)[C@@H]2CCCN2C(=O)[C@H](CO)NC(=O)[C@H](CCC(N)=O)NC(=O)[C@H](CC(=O)O)NC(=O)[C@H](CCC(=O)O)NC(=O)[C@H](Cc2ccccc2)NC(=O)[C@H](CC(N)=O)NC(=O)[C@H](Cc2ccc(O)cc2)NC(=O)CSC[C@@H](C(=O)NCC(N)=O)NC(=O)[C@@H]2CCCN2C(=O)[C@H](CCC(N)=O)NC(=O)[C@H](Cc2c[nH]c3ccccc23)NC1=O
B13: Compound 36a (peptide)
peptide: {CH2CO}-FNFEDQSAYTWQPCG-NH2
modifications: thioether N-14
SMILES: C[C@@H]1NC(=O)[C@H](CO)NC(=O)[C@H](CCC(N)=O)NC(=O)[C@H](CC(=O)O)NC(=O)[C@H](CCC(=O)O)NC(=O)[C@H](Cc2ccccc2)NC(=O)[C@H](CC(N)=O)NC(=O)[C@H](Cc2ccccc2)NC(=O)CSC[C@@H](C(=O)NCC(N)=O)NC(=O)[C@@H]2CCCN2C(=O)[C@H](CCC(N)=O)NC(=O)[C@H](Cc2c[nH]c3ccccc23)NC(=O)[C@H]([C@@H](C)O)NC(=O)[C@H](Cc2ccc(O)cc2)NC1=O

What follows are binders tested against T1, human Granzyme B (human, UniProt P10144 21-247) (assay: SPR, Biacore 8k+, hGranzyme B captured on SA chip, single cycle kinetics, 1:1 model).
T1 construct: Captured on a Series S Streptavidin chip for SPR; also called hGranzyme B; GzmB
T1 sequence (P10144 21-247 limits assumed): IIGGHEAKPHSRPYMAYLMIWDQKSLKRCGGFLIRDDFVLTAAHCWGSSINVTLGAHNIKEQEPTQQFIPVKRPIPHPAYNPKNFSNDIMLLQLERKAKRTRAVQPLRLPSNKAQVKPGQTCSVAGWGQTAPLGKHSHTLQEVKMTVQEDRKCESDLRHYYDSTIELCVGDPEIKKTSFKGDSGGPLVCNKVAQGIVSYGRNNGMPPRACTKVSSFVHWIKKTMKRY
Procedure: The kinetics of test peptide binding to human Granzyme B (hGranzyme B) was determined by SPR. All experiments were performed at 25° C. using the Biacore 8k+ instrument (Cytiva, Marlborough, MA). The Biacore 8k+ Insight Evaluation Software Version 3.0 was used to fit the data with a 1:1 binding model to determine the association rate constant kₐ (M⁻¹s⁻¹, where “M” ~equals molar and “s” ~equals seconds) and the dissociation rate constant kd (s⁻¹). These rate constants were used to calculate the equilibrium dissociation constant. KD (M)=kd/kₐ.
To measure the binding kinetics of peptides of interest, surfaces were prepared by a capture method to a Series S Streptavidin (SA) chip using a 1×HBS-EP+ running buffer (Cytiva). hGranzyme B was diluted to 10 μg/mL in IX HBS-EP+ and flowed over spot 2 of each flow cell on the chip at a flow rate of 10 ul/min for 20 s to achieve a level of capture of ~1100 RU. An unmodified spot 1 of each flow cell was used as a matrix binding control or reference surface. Binding kinetics were measured using single cycle kinetics at 25° C. by injecting 5 concentrations with 3-fold serial dilutions of test peptides from 0.01 μM to 1 μM. Compound dilutions were performed manually in a running buffer containing 1×HBS-EP+(Cytiva), and a final concentration of 2% DMSO. The interaction analyses over hGranzyme B, were performed using a 120 s association time and a 900 s dissociation time. All experiments were conducted at a flow rate of 50 μL/min with a data collection rate of 10 Hz.
Peptide dilution series included 2 zero concentration points (no compound) which were averaged and subtracted from the peptide concentration injection as DMSO control responses. Binding data acquired from the reference surface (matrix binding control) were subtracted from the binding data for hGranzyme B surface on the chip to determine specific binding. Next, the association phase data were solvent corrected to account for any signal fluctuation throughout the experiment due to subtle DMSO concentration differences. Corrected response data were analyzed using the Biacore 8k+ Evaluation Software Version 3.0 according to the manufacturer. SPR data for representative compounds of the disclosure are found in Table 8.

Binder	Kd [nM]
B1	28.8
B2	10.9
B3	23.3
B4	30.3
B5	33.9
B6	31.4
B7	18
B8	19.1
B9	25.9
B10	24
B11	29.3
B12	1.1
B13	24.2
